B1: GpH7-A5/GpH7-B3 variant (K334I)/GpL16-k0 (antibody, human IgG1, kappa)
heavy 1: not shown
heavy 2: not shown
light: DIVMTQSPLSLPVTPGEPASISCQASESLVHSNRNTYLHWYLQKPGQSPQLLIYKVSNRFSGVPDRFSGSGSGTDFTLKISRVEAEDVGVYYCSQNTHVPPTFGQGTKVEIERTVAAPSVFIFPPSDEQLKSGTASVVCLLNNFYPREAKVQWKVDNALQSGNSQESVTEQDSKDSTYSLSSTLTLSKADYEKHKVYACEVTHQGLSSPVTKSFNRGEC
notes: also called He Ab K334_07I
B2: GpH7-A5/GpH7-B3 variant (A330F)/GpL16-k0 (antibody, human IgG1, kappa)
heavy 1: not shown
heavy 2: not shown
light: B1 light
notes: also called He Ab A330_04F
B3: GpH7-A5/GpH7-B3 variant (H268A)/GpL16-k0 (antibody, human IgG1, kappa)
heavy 1: not shown
heavy 2: not shown
light: B1 light
notes: also called He Ab H268_02A
B4: GpH7-A5/GpH7-B3 variant (K326T)/GpL16-k0 (antibody, human IgG1, kappa)
heavy 1: not shown
heavy 2: not shown
light: B1 light
notes: also called He Ab K326_14T
B5: GpH7-A5/GpH7-B3 variant I336_19Q/GpL16-k0 (antibody, human IgG1, kappa)
heavy 1: not shown
heavy 2: not shown
light: B1 light
notes: Heterodimerized anti-glypican-3 IgG1 (He Ab); The mutation is in the GpH7-B3 chain only; also called He Ab with I336Q in GpH7-B3
B6: GpH7-A5/GpH7-B3 variant K334_15Y/GpL16-k0 (antibody, human IgG1, kappa)
heavy 1: not shown
heavy 2: not shown
light: B1 light
notes: Heterodimerized anti-glypican-3 IgG1 (He Ab); The mutation is in the GpH7-B3 chain only; also called He Ab with K334Y in GpH7-B3
B7: GpH7-A5/GpH7-B3 variant (K326D)/GpL16-k0 (antibody, human IgG1, kappa)
heavy 1: not shown
heavy 2: not shown
light: B1 light
notes: also called He Ab K326_09D
B8: GpH7-A5/GpH7-B3 variant K334_10E/GpL16-k0 (antibody, human IgG1, kappa)
heavy 1: not shown
heavy 2: not shown
light: B1 light
notes: Heterodimerized anti-glypican-3 IgG1 (He Ab); The mutation is in the GpH7-B3 chain only; also called He Ab with K334E in GpH7-B3
B9: GpH7-A5/GpH7-B3 variant (K334E)/GpL16-k0 (antibody, human IgG1, kappa)
heavy 1: not shown
heavy 2: not shown
light: B1 light
notes: also called He Ab K334_10E
B10: GpH7-A5/GpH7-B3 variant (K326I)/GpL16-k0 (antibody, human IgG1, kappa)
heavy 1: not shown
heavy 2: not shown
light: B1 light
notes: also called He Ab K326_07I
B11: GpH7-A5/GpH7-B3-15-02A/GpL16-k0 (antibody, human IgG1, kappa)
heavy 1: not shown
heavy 2: not shown
light: B1 light
notes: also called GpH7-A5/GpH7-B3 variant (S298A)/GpL16-k0; He Ab S298_02A
B12: GpH7-A5/GpH7-B3 variant Y300_08L/GpL16-k0 (He Ab) (antibody, human IgG1, kappa)
heavy 1: not shown
heavy 2: not shown
light: B1 light
notes: Heterodimerized anti-glypican-3 antibody; the alteration stands only in the GpH7-B3 chain
B13: GpH7-A5/GpH7-B3 variant (A330P)/GpL16-k0 (antibody, human IgG1, kappa)
heavy 1: not shown
heavy 2: not shown
light: B1 light
notes: also called He Ab A330_05P
B14: GpH7-A5/GpH7-B3 variant I336_15Y/GpL16-k0 (antibody, human IgG1, kappa)
heavy 1: not shown
heavy 2: not shown
light: B1 light
notes: Heterodimerized anti-glypican-3 IgG1 (He Ab); The mutation is in the GpH7-B3 chain only; also called He Ab with I336Y in GpH7-B3
B15: GpH7-A5/GpH7-B3 variant I336_10E/GpL16-k0 (antibody, human IgG1, kappa)
heavy 1: not shown
heavy 2: not shown
light: B1 light
notes: Heterodimerized anti-glypican-3 IgG1 (He Ab); The mutation is in the GpH7-B3 chain only; also called He Ab with I336E in GpH7-B3

Experiments:
[1] = biological target: T1, FcgRIIIa F (FcγRIIIa type F) extracellular domain with C-terminal His tag (human, UniProt P08637 17-208); assay: SPR (Biacore); relative binding activity of the heterodimerized antibody with the alteration in one H chain
T1 construct: extracellular domain; also called FcγRIIIa F; 3aF; not shown: His tag attached to the C terminus

[2] = biological target: T2, FcγRIIb extracellular domain with C-terminal His tag (human, UniProt P31994 43-217); assay: SPR (Biacore), antibody captured on antigen-peptide chip, FcγR as analyte; relative binding amount
T2 construct: extracellular domain; Soluble receptor expressed in FreeStyle293 cells and used as analyte in Biacore; also called FcgRIIb; 2b; not shown: His tag at the C terminus
T2 sequence (looked up): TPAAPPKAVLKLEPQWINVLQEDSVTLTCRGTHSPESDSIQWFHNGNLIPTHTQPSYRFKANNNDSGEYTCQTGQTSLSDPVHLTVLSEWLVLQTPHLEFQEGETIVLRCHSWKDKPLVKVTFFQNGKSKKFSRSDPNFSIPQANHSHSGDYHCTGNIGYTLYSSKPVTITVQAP
Experimental: (§1) The heterodimerized antibodies He Abs in which one of the H chains was introduced with an alteration were assayed for their binding activities to each activating FcγR and inhibitory FcγR according to the method described in Example 4. […] The activating FcγRs in FIGS. 26, 27, 28, and 29 are FcγRIa, FcγRIIa (R), FcγRIIa (H), and FcγRIIIa, respectively.
(§2) Analysis of interaction between objective antibody and the FcγR was carried out using Biacore T100 (GE Healthcare). HBS-EP+ (GE Healthcare) was used as the running buffer, and the measurement temperature was set to 25° C. Chips produced by immobilizing the antigen peptide by the amine coupling method to a Series S Sencor Chip CM5 (GE Healthcare), or alternatively, chips produced by allowing preliminarily biotinylated antigen peptides to interact with and immobilize onto a Series S Sensor Chip SA (certified) (GE Healthcare) were used. Antibodies of interest were captured onto an antigen peptide-immobilized chip, and allowed to interact to each FcγR diluted with running buffer. To regenerate and repeatedly use the chip, the antibodies captured on the chip were washed off by reacting 10 mM glycine-HCl, pH 1.5.

[3] = biological target: T3, FcγRIIIa extracellular domain with C-terminal His tag (human, UniProt P08637 17-208); assay: as above
T3 construct: extracellular domain; also called FcgRIIIa; 3a; not shown: His tag at the C terminus
Experimental: as §1, §2

[4] = biological target: T3, FcγRIIIa extracellular domain with …; assay: SPR (Biacore); He/Con for FcγRIIIa divided by He/Con for FcγRIIb
Experimental: as §1, §2

[5] = biological target: T4, FcγRIIIa (human, UniProt P08637 17-208); assay: SPR (Biacore), antibody captured on antigen-peptide chip, FcγR as analyte; binding of He Ab / binding of HeCon Ab GpH7-A5/GpH7-B3/GpL16-k0 x 100
T4 construct: extracellular domain; also called 3a; FcgRIIIa
T4 sequence (P08637 17-208): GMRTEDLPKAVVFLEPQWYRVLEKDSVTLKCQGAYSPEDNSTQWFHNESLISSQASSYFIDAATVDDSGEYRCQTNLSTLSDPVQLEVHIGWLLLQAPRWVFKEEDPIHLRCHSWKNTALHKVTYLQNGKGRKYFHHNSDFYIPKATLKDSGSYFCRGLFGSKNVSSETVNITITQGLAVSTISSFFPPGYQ

T3 sequence (P08637 17-208): as above
T1 sequence (P08637 17-208): as above

Binder	He/Con_3aF [1]	He/Con_2b (IIb binding) [2]	He/Con_3a (IIIa binding) [3]	He_3a/2b (IIIa/IIb) [4]	also measured
B1	156 % of GpH7-A5/GpH7-B3/GpL16-k0 (= 100)	–	–	–	–
B2	144 % of GpH7-A5/GpH7-B3/GpL16-k0 (= 100)	–	–	–	–
B3	121 % of GpH7-A5/GpH7-B3/GpL16-k0 (= 100)	–	–	–	–
B4	140 % of GpH7-A5/GpH7-B3/GpL16-k0 (= 100)	–	–	–	–
B5	–	58.2 relative, GpH7-A5/GpH7-B3/GpL16-k0 = 100	92.5 relative, GpH7-A5/GpH7-B3/GpL16-k0 = 100	1.59 ratio	–
B6	–	109 relative, GpH7-A5/GpH7-B3/GpL16-k0 = 100	141 relative, GpH7-A5/GpH7-B3/GpL16-k0 = 100	1.29 ratio	–
B7	148 % of GpH7-A5/GpH7-B3/GpL16-k0 (= 100)	–	–	–	–
B8	–	114 relative, GpH7-A5/GpH7-B3/GpL16-k0 = 100	181 relative, GpH7-A5/GpH7-B3/GpL16-k0 = 100	1.58 ratio	–
B9	186 % of GpH7-A5/GpH7-B3/GpL16-k0 (= 100)	–	–	–	–
B10	153 % of GpH7-A5/GpH7-B3/GpL16-k0 (= 100)	–	–	–	–
B11	151 % of GpH7-A5/GpH7-B3/GpL16-k0 (= 100)	–	–	–	–
B12	–	–	–	–	He/Con_3a [5]: 105 relative to control = 100
B13	152 % of GpH7-A5/GpH7-B3/GpL16-k0 (= 100)	–	–	–	–
B14	–	68.2 relative, GpH7-A5/GpH7-B3/GpL16-k0 = 100	87.3 relative, GpH7-A5/GpH7-B3/GpL16-k0 = 100	1.28 ratio	–
B15	–	89.8 relative, GpH7-A5/GpH7-B3/GpL16-k0 = 100	119 relative, GpH7-A5/GpH7-B3/GpL16-k0 = 100	1.33 ratio	–

Reference: patent publication US20150344570A1 (published 2015)
